Reference: paper PMC3634016 (PLoS ONE, 2013)

Target: T1, Wild type rat calmodulin (CaM) (rat, UniProt P0DP29 1-149)
T1 construct: calmodulin, rat, wild type; also called Ca^2+-CaM; calcium-calmodulin; source: expressed from pET9d (Novagen), purified (Phenyl Sepharose, gel filtration)
Assay: ITC; peptide titrated into Ca^2+-CaM alone; 25°C; 25 mM Tris-Cl pH 7.5, 75 mM NaCl, 0.5 mM CaCl2; one-set-of-sites model
Conditions: both partners purified

- stoichiometry N: 2
B1: mammalian NSCaTE_(Cav1.2) peptide (peptide)
peptide: SWQAAIDAARQAKLMGS
notes: 17 mer with the N-terminal NSCaTE motif of the mammalian L-type calcium channel Cav1.2; also called Cav1.2 NSCaTE; source: synthetic peptide (CanPeptide Inc, >95% purity)
